{"source": "paper PMC12390807", "about": "“Developing and validating anti-ADA2 single-chain antibodies coupled to alkaline phosphatase for diagnosing pleural tuberculosis” (Frontiers in Immunology, 2025)", "binders": {"B1": {"name": "H11 anti-ADA2 scFv-AP (single-chain antibody fused with bacterial alkaline phosphatase) (scFv, V domains shown)", "VH": "EVQLLESGGGLVQPGGSLRLSCAASGFTFSSYSMHWVRQAPGKGLEWVSSIWGVNGETDYADSVKGRFTISRDNSKNTLYLQMNSLRAEDTAVYYCAADWSLDYWGQGTLVTVSS", "VL": "EIVLTQSPGTLSLSPGERATLSCRASQSVSSSYLAWYQQKPGQAPRLLIYGASSRATGVPDRFSGSGSGTDFTLTISRLEPEDFAVYYCQQSSSYPWTFGQGTKVEIK", "notes": "The clone name H11 appears only in the ELISA methods; also called H11 scFv-AP; sc-anti-ADA2 alkaline phosphatase fusion protein; source: E. coli XL1-Blue (pAK600H vector), purified (Nickel Sepharose HiTrap / Ni-NTA Chelating Sepharose)"}}, "target": "T1, human adenosine deaminase 2 (ADA2) (Homo sapiens, UniProt Q9NZK5)", "T1 construct": "adenosine deaminase 2 (ADA2), human, recombinant, produced in S2 insect cells; also called hADA2; recombinant ADA2", "T1 sequence (Q9NZK5 30-511)": "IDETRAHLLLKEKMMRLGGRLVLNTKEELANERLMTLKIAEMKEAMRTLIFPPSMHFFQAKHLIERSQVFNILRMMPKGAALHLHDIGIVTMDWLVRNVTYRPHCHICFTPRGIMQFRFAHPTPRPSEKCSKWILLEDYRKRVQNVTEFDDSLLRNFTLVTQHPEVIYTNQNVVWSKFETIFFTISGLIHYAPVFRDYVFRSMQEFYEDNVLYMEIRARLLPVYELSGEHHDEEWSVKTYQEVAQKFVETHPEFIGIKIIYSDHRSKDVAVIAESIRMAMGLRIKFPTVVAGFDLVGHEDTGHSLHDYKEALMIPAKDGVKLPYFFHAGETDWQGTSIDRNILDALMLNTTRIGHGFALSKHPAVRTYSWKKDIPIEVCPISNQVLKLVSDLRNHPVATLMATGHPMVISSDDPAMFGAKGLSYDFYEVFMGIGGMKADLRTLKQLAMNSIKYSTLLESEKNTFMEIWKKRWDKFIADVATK", "experiment": "BLI; apparent dissociation constant; which partner was immobilised and the conditions are not told", "details": "both partners purified", "data": [{"binder": "B1", "values": [{"measurement": "Kd", "result": "< 10", "unit": "nM"}]}]}
